Measured values from the nanobody polyreactivity screen of Harvey et al. (2022).

Experiment: yeast display, Sf9 membrane polyspecificity reagent, FACS + sequencing; frameworks hold sequencing errors
In short: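 Galactose induction of a Saccharomyces cerevisiae BJ5465 synthetic nanobody display library ran 36–48 hours. The cells were then stained for 1 hour at 4 °C with 10% biotinylated, detergent-solubilized Sf9 membrane reagent, pulled down on streptavidin microbeads and FACS-sorted into low and high (top ~1%) gates on expression and reagent-binding fluorescence. Labels for polyreactivity follow the gate of origin.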

Row | Sequence | polyreactivity (PSR sort gate)
1 | QVQLVESGGGLVQAGGSLRLSCAASGRIFYPYAMGWYRQAPGKERELVAVINGSGGSTYYADSVKGRFTISRDNAKNTVYLQMNSLKPEDTAVYYCAAYFGHYWRYYYWGQGSQVTVSS | high polyreactivity
2 | QVQLVESGGGLVQAGGSLRLSCAASGRIFYQNAMGWYRQAPGKERELVAAISSSGDSTYADSVKGRFTISRDNAKNTVYLQMNSLKPEDTAVYYCAAGVGWEFDYWRQGTQVTVSS | low polyreactivity
3 | QVQLVESGGGLVQAGGSLRLSCAASGRIFYQYAMGWYRQAPGKERELVAAISWSGGNTYYADSVKGRFTISRDNAKKTVYFQMNSLKPEDPAVYYCNRYWYRDRLWLYDYWGQGTQVTVSS | high polyreactivity
4 | QVQLVESGGGLVQAGGSLRLSCAASGRIFYQYAMGWYRQAPGKERELVASISRSGTRTYYADSVKGRFTISRDNAKNTVYLQMNSLKPEDTAVYYCAAGYNLYYGVIYGFDYWGQGTQVTVSS | high polyreactivity
5 | QVQLVESGGGLVQAGGSLRLSCAASGRIFYQYAMGWYRQAPGKERELVASITTSGGNTYYADSVKGRFTISRDNAKITFYLQMNSLKPEDTAVYYCAARFNWRQWLYEYWGQGTQVTGSS | low polyreactivity
6 | QVQLVESGGGLVQAGGSLRLSCAASGRIFYQYAMGWYRQAPGKERELVASITTSGGNTYYADSVKGRFTISRDNAKNTVYLQMNSLKPEDTAVYYCAARFNWRQWLYDYWGQGTQVTVSS | low polyreactivity
7 | QVQLVESGGGLVQAGGSLRLSCAASGRIFYRNAMGWYRQAPGKERELVAAISGSGGSTYYADSVKGRFTISRDNAKNTVYLQMNSLKPEDTAVYYCNVDRSPTHIVGYGYWGQGTQVTVSS | low polyreactivity
8 | QVQLVESGGGLVQAGGSLRLSCAASGRIFYRNAMGWYRQAPGKERELVAGITRGGSTNYADSVKGRFTISRDNAKNTVYLQMNSLKPEDTAVYYCAKAIPAKFYSEAGYDYWGQGTQVTVSS | low polyreactivity
9 | QVQLVESGGGLVQAGGSLRLSCAASGRIFYRNTMGWYRQAPGKERELVAAITRSGGITNYADSVKGRFTISRDNAKNTVYLQMNSLKPEDTAVYYCNAAYLYSASRGVYRYRGDYWGQGTQVTVSS | high polyreactivity
10 | QVQLVESGGGLVQAGGSLRLSCAASGRIFYRNTMGWYRQAPGKERELVAAITWRAGRTYYADSVKGRFTISRDNAKNTVYLQMNSLKPEDTAVYYCNADRTAPERYSRVPSSDSWGQGTQVTVSS | high polyreactivity
11 | QVQLVESGGGLVQAGGSLRLSCAASGRIFYRYAMGWYIQAPWKERELVASISLSGDSTYYADSVKGRFTISRDNAKNTVYLQMNSLKREDTAFYYCDVEGLGAAVYAGDRYDYWGQGTQVTVSS | low polyreactivity
12 | QVQLVESGGGLVQAGGSLRLSCAASGRIFYRYAMGWYRQAPGKERELVAAIRYSGGRTYYADSVKGRFTISRDNAKNTVYLQMNSLKPEDTAVYDCAADGHWYYAPFGGGDYENDYWGQGTQVTVSS | low polyreactivity
13 | QVQLVESGGGLVQAGGSLRLSCAASGRIFYRYAMGWYRQAPGKERELVAAISSGSSTNYADSVKGRFTISRDNAKNTVYLQMNSLKPEDTAVYYCNAERYGKSWRYCYWGQGTQVTVSS | high polyreactivity
14 | QVQLVESGGGLVQAGGSLRLSCAASGRIFYRYAMGWYRQAPGKERELVASISGSGGRTYYADSVKGRFTISRDNAKNTVDLQMNSLKPEDTAVYYCAARIRPSYDWGQGTQVTVSS | high polyreactivity
15 | QVQLVESGGGLVQAGGSLRLSCAASGRIFYRYAMGWYRQAPGKERELVATISSGGSTNYADSVKGRFTISRDNAKNTVYLQMNSLKPEDTAVYYCARQSLRYSYVSRDYWGQGTQVTVSS | low polyreactivity
16 | QVQLVESGGGLVQAGGSLRLSCAASGRIFYRYAMGWYRQAPGKERELVATMSWSGGSTYYADSVKGRFTISRDNAKNTVYVQMNSLKPEDTAVYYCNAAYGYVSRVYYLIEHDYWGQGTQVTVSS | high polyreactivity
17 | QVQLVESGGGLVQAGGSLRLSCAASGRIFYRYVMGWYRQAPGKERELVAAITSSGGSTYYADSVKGRFTISRDNAKNTVYLQMNSLKPEDTAVYYCAADRYTRYRYNYWGQGTQVTVSS | high polyreactivity
18 | QVQLVESGGGLVQAGGSLRLSCAASGRIFYSNAMGWYRQAHGKERELVAAITGSGGRTHYADSVKGRFTISRDNAKNSVYLQMNSLKPEDTAVYYCAKDGYFPEFDYWGQGTQVTVSS | high polyreactivity
19 | QVQLVESGGGLVQAGGSLRLSCAASGRIFYSNAMGWYRQAPGKERELVAAITWRGGSTYYADSVKGRFTISRDNAKNTVYLQMNSLKPEDTAVYYCATDGYDDTHYYYWGQGTQVTVSS | low polyreactivity
20 | QVQLVESGGGLVQAGGSLRLSCAASGRIFYSNTMGWYRQAPGKERELVAGITSSGGSTYYADSVKGRFTISRDNAKYTVYLQMNSLKPEDTAVYYCATSSVAEAKYVTEGTFDYWGQGTQVTVSS | low polyreactivity
21 | QVQLVESGGGLVQAGGSLRLSCAASGRIFYSYAMGGYRQAPGKERELVATITNGGSTNYADSVKGRFTISRDNAKNTVYLQMNSLKPEDPAVYYCATDQFTRSVDFDYWGQGTQVTVSS | high polyreactivity
22 | QVQLVESGGGLVQAGGSLRLSCAASGRIFYSYAMGWYRQAPGNERELVAAIPRSGGRTYYADSVKGRFTISRDKAKNTGYLQMNCLKPEDTAVYDCATVWPSISPYPGYNYWGQGTQVTVSS | high polyreactivity

Row | Sequence | polyreactivity (PSR sort gate)
23 | QVQLVESGGGLVQAGGSLRLSCAASGRIFYTNAMGWYRQAPGKERELVAAISWRGGSTYYADSVKGRFTISRDNAKNTVYFQMNSLKPEDTAVYYCNRYYLSYNYDYWGQGTQVTVSS | high polyreactivity
24 | QVQLVESGGGLVQAGGSLRLSCAASGRIFYTYAMGWYRQAPGKERELVAAITSSGGRTYYADSVKGRFTISRDNAKNTVYLQMNSLKPEVTAVYYCATRYPWGWAMNYWGQGTQVTVSS | high polyreactivity
25 | QVQLVESGGGLVQAGGSLRLSCAASGRIFYTYAMGWYRQAPGKERELVAGISRGGRTYYADSVKGRFTISRDNAKNSVYLQMNSLKPEDTAVYYCAARLQYGIQYRYDYWGQGTQVTVSS | high polyreactivity
26 | QVQLVESGGGLVQAGGSLRLSCAASGRIFYTYAMGWYRQAPGKERELVSSITWSDGNTYYADSVKGRFTISRDNAKNTDYLQMNSLKPEDTAVYYCAAGDSFYVYLWPTYDYWGQGTQVTVSS | low polyreactivity
27 | QVQLVESGGGLVQAGGSLRLSCAASGRIFYVYAMGWSRQAPGKERELVAAITSGGRTYYADSVKGRFTISRDNAKNTVYLQMNSLKPEDTAVYYCAARASSYNYWGQGTQVTVSS | high polyreactivity
28 | QVQLVESGGGLVQAGGSLRLSCAASGRIFYVYAMGWYRQAPRKERELVAAITSGGSTYYADSVKGRFTISRDNAKNTVYLQMNSLKPEDTAVYYCAAYNRGRFRPYRFEYWGQGTQVTVSS | high polyreactivity
29 | QVQLVESGGGLVQAGGSLRLSCAASGRIFYWYAMGWYRQAPGKEREFVAAITSSGGSTYYADSVKGRFTISRDNAKNTVDLQMNSLKPEDTAVYYCAARNPYYTSRGYWGQGTQVTVSS | high polyreactivity
30 | QVQLVESGGGLVQAGGSLRLSCAASGRIFYWYAMGWYRQAPGKERELVAAISRSGSRTYYPDSVKGRFTISRDNAKNTVYLQMNSLKPEDTAVYYCAAVSGTGTAMDYWGQGTQVTVSS | high polyreactivity
31 | QVQLVESGGGLVQAGGSLRLSCAASGRIFYYNALGWYRPAPGKERELVAAISWSGGSTYYADSVKGRFTISRDNATNTVYLQMNSLKPEDTAVYYCAVDVYGYTPRPTREPLIYEYWGQGTQVTVSS | low polyreactivity
32 | QVQLVESGGGLVQAGGSLRLSCAASGRIFYYNTMGWYRQAPGKERELVAAISRSGGSTYYADSVKGRFTISRDNAKNTVYLQMNSLKPEDTAVYYCAAVTHRYGNSEFDYWGLGTQVTVSS | high polyreactivity
33 | QVQLVESGGGLVQAGGSLRLSCAASGRIFYYNTMGWYRQAPGKERELVARITQRGGRTYYADSVKGRFTISRDYAKNTVYLQMNSLKPVDTAVYYFNAKVRGTNTAGVDYWGQGTQVTVSS | high polyreactivity
34 | QVQLVESGGGLVQAGGSLRLSCAASGRIFYYTMVWYRQAPGKERELVAAISWSGGSTYYADSVKGRFTISRDNAKNTVYLQMNSLKPEDTAVYYCATRSRRLYHYDYWGQGTQVTVSS | high polyreactivity
35 | QVQLVESGGGLVQAGGSLRLSCAASGRIFYYYAMGWSRQAPGKERELVADITWSGGSTYYADSVKVRFTISRDNAKNTVYLQMNSLKTEDTAVYYCNADRLRSTHDYWGQGTQVTVSS | high polyreactivity
36 | QVQLVESGGGLVQAGGSLRLSCAASGRIFYYYAMGWYRQAPGKEREFVAAISGSGGTTYYADSVKGRFTISLDNAKNTVYLQMNSLKPEDTAVYYCNAKAVRGRYVWFDYWGQGTQVTVSS | high polyreactivity
37 | QVQLVESGGGLVQAGGSLRLSCAASGRIFYYYAMGWYRQAPGKERELVAAINRSGGSTYYADSVKGRFTISRDNAKNTVYLQKNSLKPEDTAVYYCASYDYWGQGSQVTVSS | high polyreactivity
38 | QVQLVESGGGLVQAGGSLRLSCAASGRIFYYYAMGWYRQAPGKERELVAAISGGGGSTYYADSVKGRFTISRDNAKNTVYLQMNSLKPEDTAVYYCAAEGAKDYTVSYDYWGQGTQVTVSS | high polyreactivity
39 | QVQLVESGGGLVQAGGSLRLSCAASGRIFYYYAMGWYRQAPGKERELVAAISQRGGRTYYADSVKGRFTISRDIAKNTVYLQMNSLIPEDTAVYYCNAYPVYGRYTHYGYGHWGQGTKVTVSS | high polyreactivity
40 | QVQLVESGGGLVQAGGSLRLSCAASGRIFYYYAMGWYRQAPGKERELVAGISSGSSTNYADSVKGRFTISRDNAKNTVYLQMNSLKPEDTAVYYCAAYPYFSVAANDDYWGQGTQVTVSS | low polyreactivity
41 | QVQLVESGGGLVQAGGSLRLSCAASGRIFYYYAMGWYRQAPGKERELVASINSVGTTTYADSVKGRVTISRDNAKNTVYLQMNSLKPEDTAVYYCARDTGSIYYDGYEYDYWGQGTQVTVSS | low polyreactivity
42 | QVQLVESGGGLVQAGGSLRLSCAASGRIFYYYAMGWYRQAPGKERELVATITTSGKTYYADSVKGRFTISRDNAKNTVYLQMNSLKPEDTAVYYCNAGWDLVYGYYPRRKNFDYWGQGTKVTVSS | high polyreactivity
43 | QVQLVESGGGLVQAGGSLRLSCAASGRIFYYYAMGWYRQAPRKERELVAAISWSDDSTYYADSVKGRFTISRDNAKNTVYLQMNSLKPEDTAVYYCAADSIHYQFDYWGQGTQVTVSS | low polyreactivity
